This assay has as its target T1, HLA-A0201 molecule on T2 cells (human).
T1 construct: MHC class I molecule without peptide on T2 cells; detected with anti-HLA-A2 mAb BB7.2; also called HLA-A2 molecule
Kind of assay: T2 cells with 10 µM peptide, HLA-A2 stained with mAb BB7.2, flow cytometry (relative MFI). The procedure:
Binding activity of the peptide to the HLA-A0201 molecule was tested using a T2 cell mutant strain (Cancer Res., 54:1071-1076, 1994.) The T2 cell expresses the HLA-A2 molecule on a cell surface without binding to a peptide, because of deficiency of TAP. Specifically, the synthesized peptide (10 μM) and the T2 cells were incubated at 26° C. for 3 h and, subsequently, incubated in 5% CO₂ and 95% air at 37° C. for 3 h. Thus, T2 cells, on whose surface the peptide was presented by HLA-A2, were obtained.
For orientation: In flow cytometry, cells or beads pass a laser one at a time.

B1: P17 (peptide)
peptide: GLLFLHTRT
notes: synthetic peptide; also called gene 5 (ppMAPkkk) 294-302
In the case of B1, the MFI came to 660.

B2: P12 (peptide)
peptide: MLPLECQYL
notes: synthetic peptide; also called gene 3 (WHSC2) 157-165
As to B2, the MFI came out at 780. To LLQDWHVIL (synthetic peptide) [P4] belongs 1010.

B3: P3 (peptide)
peptide: LIADFLSGL
notes: synthetic peptide; also called gene 1 (UBE2V) 85-93
The molecule B3 registered an MFI of 910.

B4: P14 (peptide)
peptide: RIIYDRKFL
notes: synthetic peptide; also called EIF4EBP1 51-59; gene 4 51-59
For B4, the MFI worked out at 591.

B5: P13 (peptide)
peptide: TLLRKERGV
notes: synthetic peptide; also called gene 3 (WHSC2) 267-275
B5 showed an MFI of 656.

B6: P11 (peptide)
peptide: ILGELREKV
notes: synthetic peptide; also called gene 3 (WHSC2) 141-149
In turn, B6 gave an MFI of 1090.

B7: P9 (peptide)
peptide: NVLHFFNAPL
notes: synthetic peptide; also called gene 2 (HNRPL) 501-510
B7 yielded an MFI of 832. As for ALVEFEDVL (synthetic peptide) [P6], the figure is 819.

B8: P15 (peptide)
peptide: IIYDRKFLM
notes: synthetic peptide; also called gene 4 (EIF4EBP1) 52-60
In the case of B8, the MFI came out at 789.

B9: P5 (peptide)
peptide: ILPRKHHRI
notes: synthetic peptide; also called gene 1 (UBE2V) 208-216
The molecule B9 yielded an MFI of 637.

B10: P1 (peptide)
peptide: RLQEWCSVI
notes: synthetic peptide; positions counted on the gene 1 product; also called UBE2V 43-51; gene 1 43-51
B10: the MFI turned out to be 571.

B11: P7 (peptide)
peptide: CLYGNVEKV
notes: synthetic peptide; also called gene 2 (HNRPL) 404-412
The molecule B11 had an MFI of 783. As to QQLCVYWTV (synthetic peptide) [P19], the MFI is 775.

B12: P16 (peptide)
peptide: QILKGLLFL
notes: synthetic peptide; also called gene 5 (ppMAPkkk) 290-298
Molecule B12 registered an MFI of 887. As for DLLSHAFFA (synthetic peptide) [P18], the MFI was 657.

B13: P2 (peptide)
peptide: LLLLARWEDT
notes: synthetic peptide; also called gene 1 (UBE2V) 64-73
Regarding B13, the MFI was 607.

The record behind these values is patent US20030175288A1 (GREEN PEPTIDE, published 2003).
